One block for each substance: values may come before it.
Legend:
[1] = molecular target: 5c.c7 TCR on CD4+ T cells from 5c.c7 TCR Rag KO mice (mouse); test: T102S tetramer staining of transferred 5c.c7 CD4+ T cells, flow cytometry
[2] = molecular target: MCC 88-103 peptide tethered to full-length I-E^k on M12 cells (mouse) (UniProt P04224); test: cell coupling (CATS) of 5c.c7 CD4+ T cells with MCC M12 cells, Hb M12 as dump, flow cytometry
[3] = molecular target: T102S altered peptide ligand of MCC tethered to full-length I-E^k on M12 cells (mouse) (UniProt P04224); test: cell coupling (CATS) of transferred 5c.c7 CD4+ T cells with T102S M12 cells, flow cytometry
[4] = molecular target: MCC 88-103 peptide tethered to full-length I-E^k on M12 cells (mouse) (UniProt P04224); test: cell coupling (CATS) with MCC M12 cells, flow cytometry
[5] = molecular target: MCC 88-103 peptide tethered to full-length I-E^k on M12 cells (mouse) (UniProt P04224); test: cell coupling (CATS) of B10.A CD4+ T cells with M12 cells pre-blocked with 20 µg/mL 14-4-4S; competitor: TCRs of B10.A CD4+ T cells
[6] = molecular target: T102S altered peptide ligand of MCC tethered to full-length I-E^k on M12 cells (mouse) (UniProt P04224); test: as above
[7] = molecular target: mouse hemoglobin d allele Hb 64-76 peptide tethered to full-length I-E^k on M12 cells (mouse) (UniProt P04224); test: as above
[8] = molecular target: I-E^k MHCII on tethered pMHC-II expressing M12 cells; test: cell coupling (CATS) of B10.A CD4+ T cells with pre-blocked pMHC+ M12 cells

- percentage of 5c.c7 CD4+ T cells identified [1]: 0%
Substance: T102S:I-E^k tetramer (from UniProt P22629 37-163; P04224 26-216) (peptide-MHC)

- coupling percentage [2]: 60 to 85%
- percentage of 5c.c7 CD4+ T cells identified [3]: 70%
Substance: 5c.c7 TCR on CD4+ T cells from 5c.c7 TCR Rag KO mice

- coupling percentage [4]: 30%
Substance: 5c.c7 TCR expressed on 58α^-β^- hybridoma cells (α chain fused C-terminally to mEGFP)

- fold decrease in coupling when blocked [5]: 4 fold
- fold decrease in coupling when blocked [6]: 3 fold
- fold decrease in coupling when blocked [7]: 4 fold
- fold lower relative coupling in blocked state [8]: 3 to 5 fold
Substance: 14-4-4S anti-I-E^k MHCII antibody
